Measurements published in the supplement of paper PMC9170038.

Tested on: MS2 coat protein
Assay: apparent KD of MS2 coat protein; designed switch direction (-1 OFF switch, 1 ON switch): -1; higher = weaker reporter binding
Method in brief: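 Apparent KD, taken as the median over clusters for each design, was obtained by curve-fitting normalised cluster fluorescence. Designed RNA switches had been transcribed on Illumina chips by stalled E. coli RNA polymerase and titrated with SNAP-549-labelled MS2 coat protein, doubling from 0.7 or 1.5 nM to 3 µM.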

[1] = input ligand: microRNA oligo, concentration not stated
[2] = Eterna round: R95, input ligand: microRNA oligo, concentration not stated
[3] = Eterna round: R95, input ligand: FMN 200 uM
[4] = Eterna round: R95, input ligand: none

Sequence | apparent KD of MS2 coat protein (input ligand: FMN 200 uM) | apparent KD of MS2 coat protein (input ligand: none) | apparent KD of MS2 coat protein [1] | apparent KD of MS2 coat protein [2] | apparent KD of MS2 coat protein [3] | apparent KD of MS2 coat protein [4]
AAGCAACAUGAGGAUCACCCAUGUGAGGAUAUACGCAUGCAUGCAUGCAUGCAUGCAAGUAGAAGGCACAAUAC [Design #16] (Eterna round: R97, puzzle: Exclusion 1) | 69.8 nM | 35.3 nM | – | – | – | –
CAGGAGUCACGAGGAUAUCUGGCUAAACGAACGAGAGAAGGUGUAGACUACCACAUGAGGAUCACCCAUGUUAUGACUAUACUA [Eternabot solution 30] (Eterna round: R96, puzzle: Exclusion NG 1) | 14.8 nM | 17.1 nM | 9.94 nM | – | – | –
UAGAUACAUGAGGAUCACCCAUGUGAGGAUAUGAGAAUGAAAUGAAAUGAAUGAAGAAUCAGAAGGCACAAAGG [JL-ex1-4.31 salish99 mod] (Eterna round: R97, puzzle: Exclusion 1) | 238 nM | 54 nM | – | – | – | –
AGCAAGCUUUUAAGAUCCUACAUGAGGAUCACCCAUGUGCUCGUCUUAUAACGUACUGUGACGAAAGUCACGGUACG [JL TOV1 3.32] (Eterna round: R97, puzzle: Sensor, turn-off variant 1) | 253 nM | 217 nM | – | – | – | –
GGUUAUUGCAAGGAUAUGCUUUUUUUUGAAAUUGCAGAAGGUGCAACAUGAGGAUCACCCAUGUUGGAUGGGUU [JR_E6_Sub018] (puzzle: Exclusion 6) | – | – | – | 106 nM | – | –
ACGAGGUCAGGAUAUACGGAGAGAGGGAGUUGGUUAGGGUAACAUGAGGAUCACCCAUGUAGAAGGGACUAGGG [JR_Exclu2_Sub080] (puzzle: Exclusion 2) | – | – | – | 39.9 nM | – | –
AACCUGAGGCUUUGCUUUAGGUGUACAUGAGGAUCACCCAUGUAGGAUAUGGUAGGCUUUGCUUACCAGAAGGACAUUGGCGUU [JL ENG3 1.14] (Eterna round: R96, puzzle: Exclusion NG 3) | 388 nM | 97.3 nM | 66.2 nM | – | – | –
AGACAUGAGGAUCACCCAUGUAGUGGUCCUGGUACGCGAACGUAGGAUAUAUACUGGAUUCCAAUGUAGAAGGACGACACCGCG [Tetege] (Eterna round: R96, puzzle: Exclusion NG 3) | 90 nM | 149 nM | 112 nM | – | – | –
GUUAAACAUGAGGAUCACCCAUGUAAGGAUAUGCUGAGGUAGAGAUGAAGUGAAUGAAGCAGAAGGUACAAUUG [Mat - Mod of JL D55] (puzzle: Exclusion 1) | – | – | – | 81.8 nM | 62.6 nM | 78.8 nM
ACAUGAGGAUCACCCAUGUCAGGCUGGUCCGCUCCGGCUGUUGAGGAUAUAGCACGGUAUCCGCGCUAGAAGGUGAGGGCCGGC [Aenatbe mod 30] (Eterna round: R96, puzzle: Exclusion NG 3) | 21.6 nM | 22.5 nM | 18 nM | – | – | –
CACCCACAUGAGGAUCACCCAUGUGAGGAUAUGAUACUAUGUACUUCGGUACAUAGUAUCAGAAGGCACAGGUG [Ex1-3: 61] (puzzle: Exclusion 1) | – | – | – | 30.3 nM | – | –
CCUCGUUGGGAGGAUAUCCUUUAGAUUGGAGGAGGAGAAGGCUCGACAUGAGGAUCACCCAUGUAAAAUUUAAA [-18.7, -17.5 kcal, A 31%] (Eterna round: R97, puzzle: Exclusion 6) | 274 nM | 73.3 nM | – | – | – | –
GGUGCGUUUGUGAGGAUAUGCUGGUCCUUGGUUCGGCAGAAGGCACAUGAGGAUCACCCAUGUGGUGUCGUACC [salish99_Bmod_Ex4_043] (puzzle: Brourd's mod of Exclusion 4) | – | – | – | 15.7 nM | – | –
CACCCACAUGAGGAUCACCCAUGUGAGGAUAUGAUACUAUGUACUUCGGUACAUAGUAUCAGAAGGCACAGGUG [Ex1-3: 61] (Eterna round: R96, puzzle: Exclusion 1) | 102 nM | 28 nM | 25.7 nM | – | – | –
UCGGCGCGAGGAUAUACGUUUGCUUUUUUUUGUCGUUGCGUACAUGAGGAUCACCCAUGUAGAAGGCGCGCCGC [Apr-15 SS2-23] (puzzle: Exclusion 2) | – | – | – | 16.8 nM | – | –
UAAAGUGAGUCCUCGCAGCAGCGUAGGGCGGUGCUAGCUACAUGAGGAUCACCCAUGUUUUCGCUCGUCCAGCACCU [Ceaorreti] (Eterna round: R96, puzzle: Sensor v2, turn-off variant 2) | 89.2 nM | 101 nM | 59.2 nM | – | – | –
AAAAGUUUGGAGGAUAUCCAUCCAAACGGAUAAGGAGAAGGCCGGACAUGAGGAUCACCCAUGUGAUUAGGUUA [Isradiri] (puzzle: Exclusion 6) | – | – | – | 13.4 nM | – | –

Sequence | apparent KD of MS2 coat protein (input ligand: FMN 200 uM) | apparent KD of MS2 coat protein (input ligand: none) | apparent KD of MS2 coat protein [1] | apparent KD of MS2 coat protein [2] | apparent KD of MS2 coat protein [3] | apparent KD of MS2 coat protein [4]
AGUGUGUGGCAGGAUAUUCUAAUCUUGAGGAGGGAAGAAGGGUCUACAUGAGGAUCACCCAUGUAAGCGGUUGA [Ex6 #41] (Eterna round: R97, puzzle: Exclusion 6) | 142 nM | 33.6 nM | – | – | – | –
GAUUAUGCGAGCUUUAGGGACAUGAGGAUCACCCAUGUUCGUCUUAUUGGUCUAGAUGCACUGACAUACCUAAAUCU [JMF 79] (puzzle: Sensor v3, turn-off variant 1) | – | – | – | 19.1 nM | 15.9 nM | 16.3 nM
UUUGUUUAUGUAGGAUAUGCCUGGCGUGCCUUCGCAGAAGGACAUGAGGAUCACCCAUGUAUUGCGGUCUGCGUUCAGAUCGCA [salish99_ExNG1_r4_031] (Eterna round: R96, puzzle: Exclusion NG 1) | 72.6 nM | 42.5 nM | 30 nM | – | – | –
ACGCAUUGCCUUUGGUAGUGCGUAACAUGAGGAUCACCCAUGUAGGAUAUGGUAGGCUUUGCUUACCAGAAGGACAUUAUAAAG [Mat - Exclusion NG 3 - Mod of JL - D10] (Eterna round: R96, puzzle: Exclusion NG 3) | 51.6 nM | 34.1 nM | 28.4 nM | – | – | –
UAUUUAGCAAGCAGAUCCUACAUGAGGAUCACCCAUGUGCUCUGAACGUACAGAAUUACUGUACGAGCUCGUCUUAU [Winner reversed engineered 29] (Eterna round: R97, puzzle: Sensor, turn-off variant 1) | 166 nM | 198 nM | – | – | – | –
CAAUAGUGAGGAUAUCUGAUCACACCAUGAAGAAGGAGUGUAGAGAAGGCACAUGAGGAUCACCCAUGUCCCGU [Eternabot (L2) Solution 43] (Eterna round: R97, puzzle: Exclusion 4) | 37 nM | 23.9 nM | – | – | – | –
ACAUGAGGAUCACCCAUGUCAGGCGGGUCCACUCCGGCUGUUGAGGAUAUAGUUCGGUAUCCGCGCUAGAAGGUGAGGGCCGGC [Aenatbe mod 22] (Eterna round: R96, puzzle: Exclusion NG 3) | 16 nM | 18.2 nM | 15.3 nM | – | – | –
ACUAGAUGAGGAUAUGCAUGUUUUCAUGUUCUUCUAGAUUAACAUGAGGAUCACCCAUGUAGAAGGCGUCUUAU [Exclusion 2 - 30] (puzzle: Exclusion 2) | – | – | – | 18.4 nM | – | –
UUUUAACAUGAGGAUCACCCAUGUGAGGAUAUCGAAAUUUAUAUUUAUAUUUAUAUUUCGAGAAGGCACAUUUU [JMF 97] (puzzle: Exclusion 1) | – | – | – | 131 nM | – | –
CAUGAUUGACGAGGAUAUUGUACUACAUCACGACGAGAAGGCGUCUGUCACAUGAGGAUCACCCAUGUGAGACUGGUGAAUGAG [Ex NG1 #80] (Eterna round: R96, puzzle: Exclusion NG 1) | 31.6 nM | 26.2 nM | 16.7 nM | – | – | –
GUGAGGGAGUGAGGAUAUCAGGGAGAUAAGAAAUGAGAAGGUACAUGAGGAUCACCCAUGUAAGAGUAGGGAAGAGAGAAGAGU [Default title] (Eterna round: R96, puzzle: Exclusion NG 1) | 69.3 nM | 66.7 nM | 31.6 nM | – | – | –
AGUACUAUCACGAAAGUGAUAGUACAAUGAGCUUUUGAAACAUGAGGAUCACCCAUGUCCUCGUAAGCUCGUCUUAA [Mat - Sensor v2 - var 2 - Mod - D179] (Eterna round: R96, puzzle: Sensor v2, turn-off variant 2) | 25.7 nM | 28.6 nM | 438 nM | – | – | –
ACCCAACAUGAGGAUCACCCAUGUCAGGAUAUCCAUCUAUACUCGAAAGAGUAUAGAUGGAGAAGGGACAGAGG [ChP 04-04-2015 #4] (puzzle: Exclusion 1) | – | – | – | 104 nM | – | –
ACAUGAGGAUCACCCAUGUCCGGUUGGUCUGUUCCGGCUGUCGAGGAUAUAGUCCGGUGUUCGCGCUAGAAGGCGAGGGCUGGA [Aenatbe mod 47] (Eterna round: R96, puzzle: Exclusion NG 3) | 1180 nM | 397 nM | 227 nM | – | – | –
AUUUUGUGAGGAUAUUAGAAGUAGAAAGUUGGUAGUAUUGCUGAGAAGGCACAUGAGGAUCACCCAUGUACAAC [JR_Ex4_Sub036] (Eterna round: R97, puzzle: Exclusion 4) | 17.6 nM | 16.7 nM | – | – | – | –
ACAAGCUUUUAGUUCGUCUUAUACACUCCUAAUAAGAAAACAUGAGGAUCACCCAUGUAAGAAAUAAGAACUCAUGU [Sesor Array 2 - Jieux - Sensor v3, turn-off variant 2] (Eterna round: R96, puzzle: Sensor v3, turn-off variant 2) | 186 nM | 143 nM | 297 nM | – | – | –
GGACCGCGGCAAGGAUAUCUUUGUCAACAUAAAACAUGAGGAUCACCCAUGUGCAUCUUCGUGUGAGAGAAGGUGCGGCAGUCC [Isisgeri] (Eterna round: R96, puzzle: Exclusion NG 2) | 222 nM | 127 nM | 113 nM | – | – | –
